Test results published in patent US20220089765A1, “CD31 COMPETITORS AND USES THEREOF” (ENCEFA, priority 2019, published 2022).

Tests used:
[1] = system: human peripheral blood mononuclear cells (PBMCs); test: IL-10 release from human PBMCs in vitro (ELISA); type: cell-based; conditions: PBMCs from 3 healthy donors; 10 μg/ml; LPS 500 ng/mL and interferon-γ 1B 100 ng/mL; 24 hours
Description: 3 healthy volunteers (Donor 1: Donor 2: Donor 3) served as blood donors. Venous blood (5 mL) was collected into heparinized tubes and immediately processed. Briefly, blood was diluted 1/1 in pre-warmed RPMI 1640 medium. PBMCs were isolated using gradient centrifugation in Ficoll solution (Sigma; 300×g, 30 min). Isolated PBMCs were re-suspended in 1 volume of pre-warmed RPMI 1640 medium and centrifuged again (300×g, 30 min). PBMCs were re-suspended in RPMI 1640 medium supplemented with 10% human serum (Sigma-Aldrich) at a concentration of 10^7 cells per mL. Cells were seeded in 96 well microplate (100 μL per well). Test compounds (10 μg/ml), LPS (500 ng/mL) and interferon-γ 1B (100 ng/mL) were added to PBMCs culture immediately after plating. After 24 hours, cell culture supernatants were collected and frozen at −80° C. for further processing.
IL-10 levels in cell culture supernatants were assayed using an ELISA human IL-10 kit (Ozyme®) according to the indications for use specified by the manufacturer.

[2] = system: Dextran Sulfate Sodium (DSS)-induced colitis mouse model; test: DSS-induced colitis mouse model, colon length; type: in vivo, mice; conditions: 15 mg/kg iv when DSS treatment began; 3% DSS for 5 days
Description: Administration of DSS causes human ulcerative colitis-like pathologies due to its toxicity to colonic epithelial cells, which results in compromised mucosal barrier function. Clinical observations similar to human pathologies, such as weight loss, diarrhea and occult blood in stool, are commonly observed in the DSS model. Moreover, diminution of the colon's length is characteristic of this model.
Experimental colitis was induced in mice by giving drinking water ad libitum containing 3% (w/v) DSS for 5 days, while control mice received tap water only. Test compounds were intravenously administered (15 mg/kg) when DSS treatment began. Mice were sacrificed 9 days after the beginning of DSS treatment.

[3] = system: dopaminergic neurons of the right substantia nigra pars compacta; test: 6-OHDA mouse model, number of DA (TH+) neurons; type: in vivo, mice
Description: We aimed at determining whether B08 or D06 anti-CD38 antibodies were neuroprotective in vivo against neurodegeneration induced by oxidative stress. Mouse were administered with 6-hydroxydopamine (6-OHDA) in the right striatum. Since 6-OHDA is an analogue of dopamine, it is transported in dopaminergic neurons through the dopamine transporter, resulting in a specific degeneration and loss of dopaminergic neurons of the right substantia nigra pars compacta. It has been extensively used as a test system for novel symptomatic agents and for assessment of neuroprotective and neurorepair strategies (Galindo et al., 2014. In Kostrzewa (Ed.), Handbook of neurotoxicity (1st Ed., pp. 639-651). New York: Springer-Verlag). Since 6-OHDA is injected unilaterally in the right striatum, left striatum remains unaffected and each mouse is its own control.
Two in vivo mouse models were used: the 6-OHDA mouse model and the MPTP mouse model. For the 6-OHDA mouse model, the intoxication protocol was based on the unilateral stereotaxic intrastriatal injection of 6-OHDA in the right striatum. Intracerebral or intravenous injections of treatments were made either the day before the surgical stereotaxic procedure, concomitantly with 6-OHDA during the surgical stereotaxic procedure, or two days after 6-OHDA injection. Animals were sacrificed 8 days after the surgical stereotaxic procedure.
For unilateral 6-OHDA mouse model, animals were anesthetized using Chloral hydrate (400 mg/kg, i.p.) and placed into a stereotactic frame adapted to mice. The injection was performed using a Hamilton syringe at the following coordinates: AP: […], ML: […], DV: […] (corresponding to the atlas of Franklin and Paxinos, 1997). A total volume of 2.5 μL containing or not 5 μg of 6-OHDA diluted in PBS in the presence or the absence of test treatments was injected. The needle was left in place for 10 min after the injection before retraction.
Mice were sacrificed by cervical dislocation, and beheaded to collect brain and blood samples. The brain was fixed in a paraformaldehyde solution (4%) during 1 day before being soaked in sucrose (30%) during 2 days and then froze at −80° C. for further analysis.
Each brain was sliced using a freezing microtome at −30° C. The thickness of each slice was 20 μm. The slicing was done around the substantia nigra (80 slices from slice 51 to 63 according to Allen Mouse Brain).
Slices were then washed out in PBS and incubated with anti-Tyrosine Hydroxylase to stain dopaminergic neurons (Abcam®) during 2 days, at 4° C., with agitation. Slices were incubated with corresponding secondary antibody in the presence of DAPI (Sigma Aldrich®) to stain cell's nuclei during 2 hours at room temperature, and mounted on gelatin-coated slides.
The slices were imaged using a Nikon TE2000 U equipped with a Hamamatsu ORCE-ER camera or with a Zeiss Axio Vert.A1 equipped with an axiocam 503 mono camera. Image analysis was done using Image J software or Zen (Zeiss®).

B1: Clone B08: anti-human CD38 antibody, HCVR SEQ ID NO: 33 and LCVR SEQ ID NO: 39 (antibody, V domains shown)
VH: EVQLVESGGSLVKPGGSLRLSCAASGFTFSNYYMNWVRQAPGKGLEWISSISGSSRSIYYADFVKGRFTISRDNAKNSLYLQMNSLRAEDTAVYYCVRSSDDYYYDYGMDVWGRGTLVTVSS
VL: QSVLTQPASVSGSPGQSITISCAGTSSDVGGSYSVSWYQQHPGKAPKLMIYDDSNRPSGVSNRFSGSKSGNTASLTISGLQAEDEADYYCSSYTDYSTRVFGGGTKL
modifications: HCVR B08; LCVR B08
IL-10 release [1]: statistically significantly increased
diminution of the colon's length [2]: statistically significantly repressed
protection of dopaminergic neurons of the right substantia nigra pars compacta ([3]; 0.1 mg/kg injected intracerebrally concomitantly with 6-OHDA): statistically significantly protected
neuroprotective effect in 6-OHDA model ([3]; 15 mg/kg iv one day before 6-OHDA injection): neuroprotective effect was also observed
neuroprotective activity in 6-OHDA model when degeneration is ongoing ([3]; 15 mg/kg iv two days after 6-OHDA injection): strong neuroprotective activity
